From paper PMC5433770, “Effect of N-terminal region of nuclear Drosophila melanogaster small heat shock protein DmHsp27 on function and quaternary structure” (PLoS ONE, 2017)

Molecular target: the molecule itself
Assay: native gel or EMSA; 4–12% gradient native Tris-Glycine gel; samples kept and gel run at room temperature (20°C), 150 V, Coomassie blue stain

Row | Protein | binding result
1 | DmHsp27 with deletion of the FGFG motif (29-32) (del_FGFG) (natural protein, Drosophila melanogaster, UniProt P02518 1-213, looked up, DmHsp27 (Hsp27), Drosophila melanogaster, without the four residues F29 to G32 (FGFG); also called deletion FGFG (29–32); DmHsp27Del29-32; source: E. coli BL21 (DE3) pLysS, purified (Ni-NTA, SEC on Superose 6)) MSIIPLLHLARELDHDYRTDWGHLLEDDVHAHDLFHPRRLLLPNTLGLGRRRYSPYERSHGHHNQMSRRASGGPNALLPAVGKDGFQVCMDVSQFKPNELTVKVVDNTVVVEGKHEEREDGHGMIQRHFVRKYTLPKGFDPNEVVSTVSSDGVLTLKAPPPPSKEQAKSERIVQIQQTGPAHLSVKAPAPEAGDGKAENGSGEKMETSK | binds
2 | DmHsp27 with deletion of the first 86 amino acids of the N-terminal region (Del_Nter) (domain or fragment, Drosophila melanogaster, UniProt P02518 87-213, looked up, DmHsp27 (Hsp27), Drosophila melanogaster, without the first 86 amino acids (N-terminal region); The Del-NTR forward primer carries an ATG before the codon of residue 87, so an added Met probably precedes residue 87 (surmise); also called DmHsp27Del-NTR; source: E. coli BL21 (DE3) pLysS, purified (Ni-NTA, SEC on Superose 6)) KDGFQVCMDVSQFKPNELTVKVVDNTVVVEGKHEEREDGHGMIQRHFVRKYTLPKGFDPNEVVSTVSSDGVLTLKAPPPPSKEQAKSERIVQIQQTGPAHLSVKAPAPEAGDGKAENGSGEKMETSK | binds
3 | Drosophila melanogaster small heat shock protein DmHsp27, wild type (natural protein, UniProt P02518 1-213, looked up, DmHsp27 (Hsp27), Drosophila melanogaster, wild-type cDNA; also called DmHsp27WT; Drosophila melanogaster Hsp27; source: E. coli BL21 (DE3) pLysS, purified (Ni-NTA, SEC on Superose 6)) MSIIPLLHLARELDHDYRTDWGHLLEDDFGFGVHAHDLFHPRRLLLPNTLGLGRRRYSPYERSHGHHNQMSRRASGGPNALLPAVGKDGFQVCMDVSQFKPNELTVKVVDNTVVVEGKHEEREDGHGMIQRHFVRKYTLPKGFDPNEVVSTVSSDGVLTLKAPPPPSKEQAKSERIVQIQQTGPAHLSVKAPAPEAGDGKAENGSGEKMETSK | binds
4 | DmHsp27 S58/75D (natural protein, Drosophila melanogaster, UniProt P02518 1-213, looked up, DmHsp27 (Hsp27), Drosophila melanogaster, with S58D and S75D; also called phosphomimetic mutant; source: E. coli BL21 (DE3) pLysS, purified (Ni-NTA, SEC on Superose 6)) MSIIPLLHLARELDHDYRTDWGHLLEDDFGFGVHAHDLFHPRRLLLPNTLGLGRRRYDPYERSHGHHNQMSRRADGGPNALLPAVGKDGFQVCMDVSQFKPNELTVKVVDNTVVVEGKHEEREDGHGMIQRHFVRKYTLPKGFDPNEVVSTVSSDGVLTLKAPPPPSKEQAKSERIVQIQQTGPAHLSVKAPAPEAGDGKAENGSGEKMETSK | binds
5 | DmHsp27 S75D (natural protein, Drosophila melanogaster, UniProt P02518 1-213, looked up, DmHsp27 (Hsp27), Drosophila melanogaster, with S75D; also called phosphomimetic mutant; source: E. coli BL21 (DE3) pLysS, purified (Ni-NTA, SEC on Superose 6)) MSIIPLLHLARELDHDYRTDWGHLLEDDFGFGVHAHDLFHPRRLLLPNTLGLGRRRYSPYERSHGHHNQMSRRADGGPNALLPAVGKDGFQVCMDVSQFKPNELTVKVVDNTVVVEGKHEEREDGHGMIQRHFVRKYTLPKGFDPNEVVSTVSSDGVLTLKAPPPPSKEQAKSERIVQIQQTGPAHLSVKAPAPEAGDGKAENGSGEKMETSK | binds
6 | DmHsp27 S58D (natural protein, Drosophila melanogaster, UniProt P02518 1-213, looked up, DmHsp27 (Hsp27), Drosophila melanogaster, with S58D; also called phosphomimetic mutant; source: E. coli BL21 (DE3) pLysS, purified (Ni-NTA, SEC on Superose 6)) MSIIPLLHLARELDHDYRTDWGHLLEDDFGFGVHAHDLFHPRRLLLPNTLGLGRRRYDPYERSHGHHNQMSRRASGGPNALLPAVGKDGFQVCMDVSQFKPNELTVKVVDNTVVVEGKHEEREDGHGMIQRHFVRKYTLPKGFDPNEVVSTVSSDGVLTLKAPPPPSKEQAKSERIVQIQQTGPAHLSVKAPAPEAGDGKAENGSGEKMETSK | binds
7 | DmHsp27 G32A (natural protein, Drosophila melanogaster, UniProt P02518 1-213, looked up, DmHsp27 (Hsp27), Drosophila melanogaster, with G32A; source: E. coli BL21 (DE3) pLysS, purified (Ni-NTA, SEC on Superose 6)) MSIIPLLHLARELDHDYRTDWGHLLEDDFGFAVHAHDLFHPRRLLLPNTLGLGRRRYSPYERSHGHHNQMSRRASGGPNALLPAVGKDGFQVCMDVSQFKPNELTVKVVDNTVVVEGKHEEREDGHGMIQRHFVRKYTLPKGFDPNEVVSTVSSDGVLTLKAPPPPSKEQAKSERIVQIQQTGPAHLSVKAPAPEAGDGKAENGSGEKMETSK | binds
8 | DmHsp27 G30A (natural protein, Drosophila melanogaster, UniProt P02518 1-213, looked up, DmHsp27 (Hsp27), Drosophila melanogaster, with G30A; source: E. coli BL21 (DE3) pLysS, purified (Ni-NTA, SEC on Superose 6)) MSIIPLLHLARELDHDYRTDWGHLLEDDFAFGVHAHDLFHPRRLLLPNTLGLGRRRYSPYERSHGHHNQMSRRASGGPNALLPAVGKDGFQVCMDVSQFKPNELTVKVVDNTVVVEGKHEEREDGHGMIQRHFVRKYTLPKGFDPNEVVSTVSSDGVLTLKAPPPPSKEQAKSERIVQIQQTGPAHLSVKAPAPEAGDGKAENGSGEKMETSK | binds
9 | DmHsp27 S58/75A (natural protein, Drosophila melanogaster, UniProt P02518 1-213, looked up, DmHsp27 (Hsp27), Drosophila melanogaster, with S58A and S75A; source: E. coli BL21 (DE3) pLysS, purified (Ni-NTA, SEC on Superose 6)) MSIIPLLHLARELDHDYRTDWGHLLEDDFGFGVHAHDLFHPRRLLLPNTLGLGRRRYAPYERSHGHHNQMSRRAAGGPNALLPAVGKDGFQVCMDVSQFKPNELTVKVVDNTVVVEGKHEEREDGHGMIQRHFVRKYTLPKGFDPNEVVSTVSSDGVLTLKAPPPPSKEQAKSERIVQIQQTGPAHLSVKAPAPEAGDGKAENGSGEKMETSK | binds
10 | DmHsp27 S75A (natural protein, Drosophila melanogaster, UniProt P02518 1-213, looked up, DmHsp27 (Hsp27), Drosophila melanogaster, with S75A; source: E. coli BL21 (DE3) pLysS, purified (Ni-NTA, SEC on Superose 6)) MSIIPLLHLARELDHDYRTDWGHLLEDDFGFGVHAHDLFHPRRLLLPNTLGLGRRRYSPYERSHGHHNQMSRRAAGGPNALLPAVGKDGFQVCMDVSQFKPNELTVKVVDNTVVVEGKHEEREDGHGMIQRHFVRKYTLPKGFDPNEVVSTVSSDGVLTLKAPPPPSKEQAKSERIVQIQQTGPAHLSVKAPAPEAGDGKAENGSGEKMETSK | binds
11 | DmHsp27 F29Y (natural protein, Drosophila melanogaster, UniProt P02518 1-213, looked up, DmHsp27 (Hsp27), Drosophila melanogaster, with F29Y; source: E. coli BL21 (DE3) pLysS, purified (Ni-NTA, SEC on Superose 6)) MSIIPLLHLARELDHDYRTDWGHLLEDDYGFGVHAHDLFHPRRLLLPNTLGLGRRRYSPYERSHGHHNQMSRRASGGPNALLPAVGKDGFQVCMDVSQFKPNELTVKVVDNTVVVEGKHEEREDGHGMIQRHFVRKYTLPKGFDPNEVVSTVSSDGVLTLKAPPPPSKEQAKSERIVQIQQTGPAHLSVKAPAPEAGDGKAENGSGEKMETSK | binds
12 | DmHsp27 G32R (natural protein, Drosophila melanogaster, UniProt P02518 1-213, looked up, DmHsp27 (Hsp27), Drosophila melanogaster, with G32R; source: E. coli BL21 (DE3) pLysS, purified (Ni-NTA, SEC on Superose 6)) MSIIPLLHLARELDHDYRTDWGHLLEDDFGFRVHAHDLFHPRRLLLPNTLGLGRRRYSPYERSHGHHNQMSRRASGGPNALLPAVGKDGFQVCMDVSQFKPNELTVKVVDNTVVVEGKHEEREDGHGMIQRHFVRKYTLPKGFDPNEVVSTVSSDGVLTLKAPPPPSKEQAKSERIVQIQQTGPAHLSVKAPAPEAGDGKAENGSGEKMETSK | binds
13 | DmHsp27 S58A (natural protein, Drosophila melanogaster, UniProt P02518 1-213, looked up, DmHsp27 (Hsp27), Drosophila melanogaster, with S58A; source: E. coli BL21 (DE3) pLysS, purified (Ni-NTA, SEC on Superose 6)) MSIIPLLHLARELDHDYRTDWGHLLEDDFGFGVHAHDLFHPRRLLLPNTLGLGRRRYAPYERSHGHHNQMSRRASGGPNALLPAVGKDGFQVCMDVSQFKPNELTVKVVDNTVVVEGKHEEREDGHGMIQRHFVRKYTLPKGFDPNEVVSTVSSDGVLTLKAPPPPSKEQAKSERIVQIQQTGPAHLSVKAPAPEAGDGKAENGSGEKMETSK | binds
14 | DmHsp27 G30R (natural protein, Drosophila melanogaster, UniProt P02518 1-213, looked up, DmHsp27 (Hsp27), Drosophila melanogaster, with G30R; source: E. coli BL21 (DE3) pLysS, purified (Ni-NTA, SEC on Superose 6)) MSIIPLLHLARELDHDYRTDWGHLLEDDFRFGVHAHDLFHPRRLLLPNTLGLGRRRYSPYERSHGHHNQMSRRASGGPNALLPAVGKDGFQVCMDVSQFKPNELTVKVVDNTVVVEGKHEEREDGHGMIQRHFVRKYTLPKGFDPNEVVSTVSSDGVLTLKAPPPPSKEQAKSERIVQIQQTGPAHLSVKAPAPEAGDGKAENGSGEKMETSK | binds
15 | DmHsp27 F31A (natural protein, Drosophila melanogaster, UniProt P02518 1-213, looked up, DmHsp27 (Hsp27), Drosophila melanogaster, with F31A; source: E. coli BL21 (DE3) pLysS, purified (Ni-NTA, SEC on Superose 6)) MSIIPLLHLARELDHDYRTDWGHLLEDDFGAGVHAHDLFHPRRLLLPNTLGLGRRRYSPYERSHGHHNQMSRRASGGPNALLPAVGKDGFQVCMDVSQFKPNELTVKVVDNTVVVEGKHEEREDGHGMIQRHFVRKYTLPKGFDPNEVVSTVSSDGVLTLKAPPPPSKEQAKSERIVQIQQTGPAHLSVKAPAPEAGDGKAENGSGEKMETSK | binds
16 | DmHsp27 F31Y (natural protein, Drosophila melanogaster, UniProt P02518 1-213, looked up, DmHsp27 (Hsp27), Drosophila melanogaster, with F31Y; source: E. coli BL21 (DE3) pLysS, purified (Ni-NTA, SEC on Superose 6)) MSIIPLLHLARELDHDYRTDWGHLLEDDFGYGVHAHDLFHPRRLLLPNTLGLGRRRYSPYERSHGHHNQMSRRASGGPNALLPAVGKDGFQVCMDVSQFKPNELTVKVVDNTVVVEGKHEEREDGHGMIQRHFVRKYTLPKGFDPNEVVSTVSSDGVLTLKAPPPPSKEQAKSERIVQIQQTGPAHLSVKAPAPEAGDGKAENGSGEKMETSK | binds
17 | DmHsp27 F29A (natural protein, Drosophila melanogaster, UniProt P02518 1-213, looked up, DmHsp27 (Hsp27), Drosophila melanogaster, with F29A; source: E. coli BL21 (DE3) pLysS, purified (Ni-NTA, SEC on Superose 6)) MSIIPLLHLARELDHDYRTDWGHLLEDDAGFGVHAHDLFHPRRLLLPNTLGLGRRRYSPYERSHGHHNQMSRRASGGPNALLPAVGKDGFQVCMDVSQFKPNELTVKVVDNTVVVEGKHEEREDGHGMIQRHFVRKYTLPKGFDPNEVVSTVSSDGVLTLKAPPPPSKEQAKSERIVQIQQTGPAHLSVKAPAPEAGDGKAENGSGEKMETSK | binds
